# Laboratory results: IntAct's records for PubMed 31515488
# B1: Vesicle transport through interaction with t-SNAREs homolog 1B (Homo sapiens), Q9UEU0 (parent)
# chain: MASSAASSEHFEKLHEIFRGLHEDLQGVPERLLGTAGTEEKKKLIRDFDEKQQEANETLAEMEEELRYAPLSFRNPMMSKLRNYRKDLAKLHREVRSTPLTATPGGRGDMKYGIYAVENEHMNRLQSQRAMLLQGTESLNRATQSIERSHRIATETDQIGSEIIEELGEQRDQLERTKSRLVNTSENLSKSRKILRSMSRKVTTNKLLLSIIILLELAILGGLVYYKFFRSH
# partner: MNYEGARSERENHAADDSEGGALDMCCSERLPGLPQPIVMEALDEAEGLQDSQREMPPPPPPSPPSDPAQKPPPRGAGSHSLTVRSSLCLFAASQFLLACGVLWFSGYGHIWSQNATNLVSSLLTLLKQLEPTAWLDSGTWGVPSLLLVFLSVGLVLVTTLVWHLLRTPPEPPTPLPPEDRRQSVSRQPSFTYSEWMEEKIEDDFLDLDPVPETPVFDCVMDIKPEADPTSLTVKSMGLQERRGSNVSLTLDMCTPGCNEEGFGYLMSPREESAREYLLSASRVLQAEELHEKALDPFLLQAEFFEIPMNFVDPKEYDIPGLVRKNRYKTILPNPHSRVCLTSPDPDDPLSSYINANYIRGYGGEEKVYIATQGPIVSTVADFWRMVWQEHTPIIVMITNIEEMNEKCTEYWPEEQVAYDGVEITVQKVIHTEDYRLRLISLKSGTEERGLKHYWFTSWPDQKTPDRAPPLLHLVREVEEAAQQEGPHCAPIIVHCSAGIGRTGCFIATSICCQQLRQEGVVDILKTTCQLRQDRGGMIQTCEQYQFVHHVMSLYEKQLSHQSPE
# B2: Tuftelin-interacting protein 11 (Homo sapiens), Q9UBB9 (parent)
# chain: MSLSHLYRDGEGRIDDDDDERENFEITDWDLQNEFNPNRQRHWQTKEEATYGVWAERDSDDERPSFGGKRARDYSAPVNFISAGLKKGAAEEAELEDSDDEEKPVKQDDFPKDFGPRKLKTGGNFKPSQKGFAGGTKSFMDFGSWERHTKGIGQKLLQKMGYVPGRGLGKNAQGIINPIEAKQRKGKGAVGAYGSERTTQSMQDFPVVDSEEEAEEEFQKELSQWRKDPSGSKKKPKYSYKTVEELKAKGRISKKLTAPQKELSQVKVIDMTGREQKVYYSYSQISHKHNVPDDGLPLQSQQLPQSGKEAKAPGFALPELEHNLQLLIDLTEQEIIQNDRQLQYERDMVVNLFHELEKMTEVLDHEERVISNLSKVLEMVEECERRMQPDCSNPLTLDECARIFETLQDKYYEEYRMSDRVDLAVAIVYPLMKEYFKEWDPLKDCTYGTEIISKWKSLLENDQLLSHGGQDLSADAFHRLIWEVWMPFVRNIVTQWQPRNCDPMVDFLDSWVHIIPVWILDNILDQLIFPKLQKEVENWNPLTDTVPIHSWIHPWLPLMQARLEPLYSPIRSKLSSALQKWHPSDSSAKLILQPWKDVFTPGSWEAFMVKNIVPKLGMCLGELVINPHQQHMDAFYWVIDWEGMISVSSLVGLLEKHFFPKWLQVLCSWLSNSPNYEEITKWYLGWKSMFSDQVLAHPSVKDKFNEALDIMNRAVSSNVGAYMQPGARENIAYLTHTERRKDFQYEAMQERREAENMAQRGIGVAASSVPMNFKDLIETKAEEHNIVFMPVIGKRHEGKQLYTFGRIVIYIDRGVVFVQGEKTWVPTSLQSLIDMAK
# partner: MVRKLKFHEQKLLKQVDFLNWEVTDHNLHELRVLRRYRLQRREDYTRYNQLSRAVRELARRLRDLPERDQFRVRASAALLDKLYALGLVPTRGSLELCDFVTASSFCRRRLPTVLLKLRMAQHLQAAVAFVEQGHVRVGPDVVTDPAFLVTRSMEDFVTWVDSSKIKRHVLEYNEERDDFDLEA
# B3: Centrosomal protein POC5 (Homo sapiens), Q8NA72 (parent)
# chain: MSSDEEKYSLPVVQNDSSRGSSVSSNLQEEYEELLHYAIVTPNIEPCASQSSHPKGELVPDVRISTIHDILHSQGNNSEVRETAIEVGKGCDFHISSHSKTDESSPVLSPRKPSHPVMDFFSSHLLADSSSPATNSSHTDAHEILVSDFLVSDENLQKMENVLDLWSSGLKTNIISELSKWRLNFIDWHRMEMRKEKEKHAAHLKQLCNQINELKELQKTFEISIGRKDEVISSLSHAIGKQKEKIELMRTFFHWRIGHVRARQDVYEGKLADQYYQRTLLKKVWKVWRSVVQKQWKDVVERACQARAEEVCIQISNDYEAKVAMLSGALENAKAEIQRMQHEKEHFEDSMKKAFMRGVCALNLEAMTIFQNRNDAGIDSTNNKKEEYGPGVQGKEHSAHLDPSAPPMPLPVTSPLLPSPPAAVGGASATAVPSAASMTSTRAASASSVHVPVSALGAGSAATAASEEMYVPRVVTSAQQKAGRTITARITGRCDFASKNRISSSLAIMGVSPPMSSVVVEKHHPVTVQTIPQATAAKYPRTIHPESSTSASRSLGTRSAHTQSLTSVHSIKVVD
# partner: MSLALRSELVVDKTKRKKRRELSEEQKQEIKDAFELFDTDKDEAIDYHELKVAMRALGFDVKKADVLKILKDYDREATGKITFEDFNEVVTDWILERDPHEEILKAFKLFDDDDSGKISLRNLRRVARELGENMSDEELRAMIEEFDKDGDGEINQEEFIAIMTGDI
# B4: SR-related and CTD-associated factor 8 (Homo sapiens), Q9UPN6 (parent)
# chain: MEAVKTFNSELYSLNDYKPPISKAKMTQITKAAIKAIKFYKHVVQSVEKFIQKCKPEYKVPGLYVIDSIVRQSRHQFGQEKDVFAPRFSNNIISTFQNLYRCPGDDKSKIVRVLNLWQKNNVFKSEIIQPLLDMAAGIPPPVVTPVLASTTTAMSNTPGTPVTPVTPANVVQGLPDPWVSQITNTDTLAAVAQILQSPQGQQLQQLIQTLQIQQQKPQPSILQALDAGLVVQLQALTAQLTAAAAAANTLTPLEQGVSFNKKLMDRFDFGEDSEHSEEPKKEIPASQLSHVSESVNNSIFHQIAEQLQQQNLEHLRQQLLEQQQPQKATPQDSQEGTFGSEHSASPSQGSSQQHFLEPEVNLDDSIDIQQQDMDIDEGQDGVEEEVFEQEAKKVAVRSRSRTHSRSRSRSPRKRRSRSRSGSRKRKHRKRSRSRSRERKRKSSRSYSSERRAREREKERQKKGLPPIRSKTLSVCSTTLWVGQVDKKATQQDLTNLFEEFGQIESINMIPPRGCAYVCMVHRQDAFRALQKLSSGSYKIGSKVIKIAWALNKGVKTEYKQFWDVDLGVTYIPWEKVKVDDLEGFAEGGMIDQETVNTEWETVKSSEPVKETVQTTQSPTPVEKETVVTTQAEVFPPPVAMLQIPVAPAVPTVSLVPPAFPVSMPVPPPGFSPIPPPPFLRASFNPSQPPPGFMPPPVPPPVVPPPTIPPVVPTSLVQPSLSMTPETVKDVGFGSLVIPGGSVASNLATSALPAGNVFNAPTKQAEPEEKVPHLIDHQISSGENTRSVIPNDISSNAAILGGQPPNVTSNSGILGVQRPNVSSNSEILGVRPSNVSSSSGIIAAQPPNILNNSGILGIQPPSVSNSSGLLGVLPPNIPNNSGLVGVQPPNVPNTPGLLGTQPPAGPQNLPPLSIPNQRMPTMPMLDIRPGLIPQAPGPRFPLIQPGIPPQRGIPPPSVLDSALHPPPRGPFPPGDIFSQPERPFLAPGRQSVDNVTNPEKRIPLGNDNIQQEGDRDYRFPPIETRESISRPPPVDVRDVVGRPIDPREGPGRPPLDGRDHFGRPPVDIRENLVRPGIDHLGRRDHFGFNPEKPWGHRGDFDEREHRVLPVYGGPKGLHEERGRFRSGNYRFDPRSGPWNRGFGQEVHRDFDDRRRPWERQRDRDDRDFDFCREMNGNRLGRDRIQNTWVPPPHARVFDYFEGATSQRKGDNVPQVNGENTERHAQPPPIPVQNDPELYEKLTSSNEINKEKSDTVADIESEPVVESTETEGT
# partner: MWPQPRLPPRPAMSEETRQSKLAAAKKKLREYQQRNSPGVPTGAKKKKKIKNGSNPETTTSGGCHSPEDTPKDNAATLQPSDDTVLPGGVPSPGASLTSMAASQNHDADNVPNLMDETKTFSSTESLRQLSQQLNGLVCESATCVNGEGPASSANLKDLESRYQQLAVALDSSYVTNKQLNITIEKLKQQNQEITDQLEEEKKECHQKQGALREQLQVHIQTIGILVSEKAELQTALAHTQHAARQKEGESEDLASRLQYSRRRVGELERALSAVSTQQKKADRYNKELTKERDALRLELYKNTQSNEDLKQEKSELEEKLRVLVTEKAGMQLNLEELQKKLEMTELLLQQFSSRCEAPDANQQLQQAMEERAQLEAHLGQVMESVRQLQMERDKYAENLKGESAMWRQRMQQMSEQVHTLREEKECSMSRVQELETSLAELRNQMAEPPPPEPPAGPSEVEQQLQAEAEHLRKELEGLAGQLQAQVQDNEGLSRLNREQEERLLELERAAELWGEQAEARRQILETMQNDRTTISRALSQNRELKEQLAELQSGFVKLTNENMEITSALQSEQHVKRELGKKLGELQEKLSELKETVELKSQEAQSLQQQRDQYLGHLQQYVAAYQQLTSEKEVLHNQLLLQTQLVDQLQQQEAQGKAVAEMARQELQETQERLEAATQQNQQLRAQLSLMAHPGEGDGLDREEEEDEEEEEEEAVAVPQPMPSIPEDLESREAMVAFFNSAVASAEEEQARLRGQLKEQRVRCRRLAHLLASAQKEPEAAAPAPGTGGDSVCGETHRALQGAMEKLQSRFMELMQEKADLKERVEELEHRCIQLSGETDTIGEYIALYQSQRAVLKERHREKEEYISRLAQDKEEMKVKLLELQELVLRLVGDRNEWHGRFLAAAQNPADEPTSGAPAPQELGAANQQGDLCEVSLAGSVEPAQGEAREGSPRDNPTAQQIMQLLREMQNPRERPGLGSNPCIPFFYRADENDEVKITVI
# B5: Leucine rich adaptor protein 1 (Homo sapiens), Q96LR2 (parent)
# chain: MEGTVESQTPDLRDVEGKVGRKTPEGLLRGLRGECELGTSGALLLPGASSTGHDLGDKIMALKMELAYLRAIDVKILQQLVTLNEGIEAVRWLLEERGTLTSHCSSLTSSQYSLTGGSPGRSRRGSWDSLPDTSTTDRLDSVSIGSFLDTVAPSELDEQGPPGAPRSEMDWAKVIAGGERARTEVDVAATRLGSLRAVWKPPGERLQGGPPESPEDESAKLGFEAHWFWEQCQDDVTFL
# partner: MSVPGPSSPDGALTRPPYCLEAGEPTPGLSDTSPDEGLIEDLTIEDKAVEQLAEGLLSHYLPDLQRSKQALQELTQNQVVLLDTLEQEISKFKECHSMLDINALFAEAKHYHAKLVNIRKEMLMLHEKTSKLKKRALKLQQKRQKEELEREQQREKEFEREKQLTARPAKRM
# Variants of: B1
# Details: with ptn5_human PTPN5, P54829
row,effect of a mutation on the interaction,Variant
1,with no effect,MASSAASSEHFEKLHEIFRGLHEDLQGVPERLLGTAGTEEKKKLIRDFDEKQQEANETLAEMEEELRYAPLSFRNPMMSKLRNYRKDLAKLHREVRSTPLTATPGGRGDMKYGIYAVENEHMNQLQSQRAMLLQGTESLNRATQSIERSHRIATETDQIGSEIIEELGEQRDQLERTKSRLVNTSENLSKSRKILRSMSRKVTTNKLLLSIIILLELAILGGLVYYKFFRSH [R124Q]
2,with no effect,MASSAASSEHFEKLHEIFRGLHEDLQGVPERLLGTAGTEEKKKLIRDFDEKQQEANETLAEMEEELRYAPLSFRNPMMSKLRNYRKDLAKLHREVRSTPLTATPGGRGDMKYGIYAVENEHMNRLQSQRAMLLQGTESLNRATQSIERSHRIATETDQIGSEIIEELGEQRDQLEHTKSRLVNTSENLSKSRKILRSMSRKVTTNKLLLSIIILLELAILGGLVYYKFFRSH [R176H]

# Variants of: B2
# Details: with imp3_human IMP3, Q9NV31
row,effect of a mutation on the interaction,Variant
1,with no effect,R8Q
2,with no effect,S688L

# Variants of: B3
# Details: with cetn3_human CETN3, O15182
row,effect of a mutation on the interaction,Variant
1,with no effect,MSSDEEKYSLPVVQNDSSRGSSVSSNLQEEYEELLRYAIVTPNIEPCASQSSHPKGELVPDVRISTIHDILHSQGNNSEVRETAIEVGKGCDFHISSHSKTDESSPVLSPRKPSHPVMDFFSSHLLADSSSPATNSSHTDAHEILVSDFLVSDENLQKMENVLDLWSSGLKTNIISELSKWRLNFIDWHRMEMRKEKEKHAAHLKQLCNQINELKELQKTFEISIGRKDEVISSLSHAIGKQKEKIELMRTFFHWRIGHVRARQDVYEGKLADQYYQRTLLKKVWKVWRSVVQKQWKDVVERACQARAEEVCIQISNDYEAKVAMLSGALENAKAEIQRMQHEKEHFEDSMKKAFMRGVCALNLEAMTIFQNRNDAGIDSTNNKKEEYGPGVQGKEHSAHLDPSAPPMPLPVTSPLLPSPPAAVGGASATAVPSAASMTSTRAASASSVHVPVSALGAGSAATAASEEMYVPRVVTSAQQKAGRTITARITGRCDFASKNRISSSLAIMGVSPPMSSVVVEKHHPVTVQTIPQATAAKYPRTIHPESSTSASRSLGTRSAHTQSLTSVHSIKVVD [H36R]

# Variants of: B4
# Details: with goga2_human GOLGA2, Q08379
row,effect of a mutation on the interaction,Variant
1,with no effect,M1173V

# Variants of: B5
# Details: with bl1s6_human BLOC1S6, Q9UL45
row,effect of a mutation on the interaction,Variant
1,with no effect,MEGTVESQTPDLRDVEGKVGRKTPEGLLRGLRGECELGTSGALLLPGASSTGHDLGDKILALKMELAYLRAIDVKILQQLVTLNEGIEAVRWLLEERGTLTSHCSSLTSSQYSLTGGSPGRSRRGSWDSLPDTSTTDRLDSVSIGSFLDTVAPSELDEQGPPGAPRSEMDWAKVIAGGERARTEVDVAATRLGSLRAVWKPPGERLQGGPPESPEDESAKLGFEAHWFWEQCQDDVTFL [M60L]
